We go through one molecule from publication PMC3906830 (The Febs Journal, 2013).

In the assay the target is T1, mature myostatin (human, UniProt O14793 267-375).
T1 sequence (looked up): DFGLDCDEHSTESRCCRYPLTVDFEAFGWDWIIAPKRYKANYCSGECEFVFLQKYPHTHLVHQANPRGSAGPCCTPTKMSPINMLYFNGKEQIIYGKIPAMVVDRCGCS
The experiment in a line: SPR.

B1: N-terminal region of myostatin prodomain (PRO43-115) (domain or fragment, human, UniProt O14793 43-115, looked up)
chain: TWRQNTKSSRIEAIKIQILSKLRLETAPNISKDVIRQLLPKAPPLRELIDQYDVQRDDSSDGSLEDDDYHATT
Consider B1, for which binding was put at a Kd of 3.7 µM.
